The series has as its system Nc1ncnc2c1ncn2[C@@H]1O[C@H](COP(=O)(O)O)[C@@H](O)[C@H]1O. As to the kind of experiment: purified protein, by the assay type. The conditions noted are these: pH 7.5; 37.0 °C.

As usually defined, the Km is the substrate concentration at which the rate is half of its maximum.

As to “Bacillus anthracis BasA (AdsA homolog, NCBI locus tag BAS4031), tagged, affinity purified from E. coli, SEQ ID NO:41 (Bacillus anthracis)”, the Km is listed as 2.01 nM.

Source of the values: patent US20110262477A1 (priority 2008, published 2011).
